B1: 2C5: PDGFRβ-specific human antibody binding both human and murine PDGFRβ; SEQ ID NOS in Table 1 (antibody, listed as Homo sapiens, V domains shown)
VH: QVQLVQSGAEVKKPGSSVKVSCKASGGTFSSYAISWVRQAPGQGLEWMGRIIPILGIANYAQKFQGRVTITADKSTSTAYMELSSLRSEDTAVYYCARDMGSRNYYYFYWGQGTLVTVSS
VL: EIVLTQSPATLSLSPGERATLSCRASQSVGRYLAWYQQKPGQAPRLLIYGASNRATGIPARFSGSGSGTDFTLTISSLEPEDFAVYYCQQRSNWPLTFGGGTKVEIK
B2: 1B3: human anti-mouse PDGFRβ antibody from Fab phage display library, human κ/γ1 constant regions; SEQ ID NOS in Table 1 (antibody, listed as Homo sapiens, V domains shown)
VH: QVQLQESGGGLVKPGGSLRLSCAASGFTFSSYSMNWVRQAPGKGLEWVSSISSSSSYIYYADSVKGRFTISRDNSKNTLYLQMNSLRAEDTAVYYCAKGGRPLLVFDFWGQGTLVTVS
VL: EIVMTQSPGTLSLSPGERATLSCRASQSVSSSYLAWYQQKPGQAPRLLIYDASKRATGIPARFSGSGSGTDFTLTISTLESEDSAVYYCQQRGYWPPITFGQGTRLEIKR
modifications: human kappa/gamma1 constant regions

Tests used:
[1] = test system: Akt and p44/42 MAP kinase in Caki-1 cells; test: PDGF-BB-stimulated downstream signaling (Western blot); type: cell-based, human
Method: To study the downstream signaling, the cell lysate from the above treatment were resolved by a 4-12% NuPAGE Bis-Tris gel. Phosphorylated Akt and p44/42 mitogen-activated protein kinase (MAPK) were detected using an anti-phospho-Akt and an anti-phospho-p44/p42 MAPK and p44/p42 MAPK, respectively (eBioscience, San Diego, Calif.).
2C5 inhibits PDGF-BB-stimulated receptor phosphorylation and downstream signaling in a cell-based assay. The ability of 2C5 to block PDGFRβ phosphorylation was determined for human Caki-1 tumor cells (FIG. 7) and mouse NIH/3T3 and D122 cells lines (FIG. 8).

NCI-H460 cells = test: PDGF-BB-stimulated cell migration, two-chamber technique; type: cell-based, human; settings: antibody 30 μg/ml, PDGF-BB 100 ng/ml, 4 hours
Method: (§1) 2C5 inhibits PDGF-BB-stimulated cell migration in a cell-based migration assay. Two-chamber technique was used to determine the inhibitory ability of 2C5 in cell migration with NCI-H460, OVCAR8, WS-1 and U-118 cell lines. Collagen (100 μg/ml) was added to the up chamber (100 μl) and the lower chamber (150 μl) and incubated at 37° C. for 1 hour. After washing the chambers twice with PBS, 100 μl of starved cells (estimated 0.5-10×10^6/ml in serum-free medium) were added to the up chamber and 150 μl of serum-free medium was added to the lower chamber and then incubated at 37° C. for 4 hours. […] In 2C5 wells, 2C5 were added into the up chamber at a final concentration of 30 μg/ml. Non-migrated cells in the up chamber were scraped from the membrane. After washing three times with PBS, migrated cells on the membrane of the lower chamber side were fixed with 4% formalin and stained with Hoechst (4 μg/ml). The results were captured and cells were counted under fluorescence microscopy.

OVCAR8 cells = test: as above; type: cell-based, human; settings: antibody 30 μg/ml, PDGF-BB 100 ng/ml, 4 hours
Method: as §1

3β2α = test: Epitope mapping, PDGFRβ/α chimera; type: binding; settings: ✓ / X, key not given
Method: (§2) 2C5 binds to domain 1 (D1) and domain 2 (D2) of PDGFRβ. Various chimeric constructs of PDGFRβ and PDGFRα were first made by domain swapping, starting from N-terminus to C-terminus with PDGFRβ domain(s) replacing PDGFRα domain(s). The PDGFRβ/α chimera were tested for the ability of 2C5 binding. Shorter versions of PDGFRβ, including D1D2, D2D3 and D1D2D3, were then made to confirm the 2C5 binding domains on PDGFRβ.

4β1α = test: Epitope mapping, PDGFRβ/α chimera; type: binding; settings: ✓ / X, key not given
Method: as §2

h5β = h5β (Homo sapiens, UniProt P09619); test: Epitope mapping; type: binding; settings: ✓ / X, key not given
Method: as §2, with “Various” for “2C5 binds to domain 1 (D1) and domain 2 (D2) of PDGFRβ. Various”

β1-2 = molecular target: T1, β1-2 (Homo sapiens, UniProt P09619); test: Epitope mapping, shorter version of PDGFRβ (D1D2); type: binding; settings: ✓ / X, key not given
T1 construct: Shorter versions of PDGFRβ, including D1D2, D2D3 and D1D2D3, were then made; made in house
Method: as §2

human PDGFRβ = test: Cross-reactivity binding test (soluble recombinant protein or cell-surface receptor on human tumor cell lines); settings: soluble recombinant protein or cell-surface-expressed receptor on human tumor cell lines
mouse PDGFRα = mouse PDGFRα (Mus musculus, UniProt P26618); test: Binding to PDGFRα; settings: data not shown
human xenograft tumors = test: Human tumor xenograft models in athymic nude mice (statements over several models); type: in vivo; settings: all six xenograft models, i.p. up to 60 mg/kg
Method: Antitumor activity of anti-mPDGFRβ antibody in tumor xenograft models. Six human xenograft tumor models, including three ovarian carcinoma (SK-OV-3, OV-CAR-5 and OV-CAR-8), one pancreatic carcinoma (BxPC3), one lung carcinoma (NCI-H460), and one kidney carcinoma (Caki-1), were used to assess the antitumor activity of 1B3 in vivo. Athymic (nu/nu) mice (female, 7-8 weeks of age) were housed for 7-10 days before xenograft implantation. Each mouse was injected subcutaneously with 3-10×10^6 cells of SK-OV-3, OVCAR-5, OVCAR-8, Caki-1, BxPC3 or NCI-H460 tumor cells. When tumors reached approximately 250-300 mm^3, mice were randomized into groups of 10 to 12 animals each and treated by intraperitoneal injection, 2 to 3 times per week, with 1B3, DC101, or 1B3 in combination with DC101. Human IgG and/or USP saline were used as control groups. Tumor sizes and mouse body weight were measured twice a week. Tumor volume was calculated using the formula: π/6×(length×width^2), where length=longest diameter and width=diameter perpendicular to length. The ratio of average tumor volume in the treatment group versus that in the control group (T/C %) was calculated. Statistic analysis was performed by Student's t-test.
The xenograft cell lines were BxPC-3, MIA-PaCa-2, Detroit-562, HCT-8, NCI-H460, NCI-H292, and HCT-116. […] (FIG. 10 and Table 3). […]

Chain of human PDGFRβ (P09619 33-532 limits assumed): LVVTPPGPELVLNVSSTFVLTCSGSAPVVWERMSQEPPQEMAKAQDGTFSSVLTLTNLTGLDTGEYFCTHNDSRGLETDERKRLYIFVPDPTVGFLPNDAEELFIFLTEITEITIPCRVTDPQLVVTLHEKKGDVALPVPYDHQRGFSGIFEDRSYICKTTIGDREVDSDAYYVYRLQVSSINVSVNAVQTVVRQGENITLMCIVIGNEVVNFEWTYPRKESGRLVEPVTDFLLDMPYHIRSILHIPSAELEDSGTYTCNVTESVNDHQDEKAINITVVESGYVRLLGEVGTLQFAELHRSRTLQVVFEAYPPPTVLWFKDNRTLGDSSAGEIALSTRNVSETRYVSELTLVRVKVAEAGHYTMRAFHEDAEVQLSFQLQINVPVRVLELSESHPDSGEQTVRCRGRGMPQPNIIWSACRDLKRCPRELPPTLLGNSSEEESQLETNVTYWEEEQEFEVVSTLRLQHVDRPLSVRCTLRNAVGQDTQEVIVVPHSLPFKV
Chain of h5β (P09619 33-532 limits assumed): as above
Chain of mouse PDGFRα (P26618 25-1089): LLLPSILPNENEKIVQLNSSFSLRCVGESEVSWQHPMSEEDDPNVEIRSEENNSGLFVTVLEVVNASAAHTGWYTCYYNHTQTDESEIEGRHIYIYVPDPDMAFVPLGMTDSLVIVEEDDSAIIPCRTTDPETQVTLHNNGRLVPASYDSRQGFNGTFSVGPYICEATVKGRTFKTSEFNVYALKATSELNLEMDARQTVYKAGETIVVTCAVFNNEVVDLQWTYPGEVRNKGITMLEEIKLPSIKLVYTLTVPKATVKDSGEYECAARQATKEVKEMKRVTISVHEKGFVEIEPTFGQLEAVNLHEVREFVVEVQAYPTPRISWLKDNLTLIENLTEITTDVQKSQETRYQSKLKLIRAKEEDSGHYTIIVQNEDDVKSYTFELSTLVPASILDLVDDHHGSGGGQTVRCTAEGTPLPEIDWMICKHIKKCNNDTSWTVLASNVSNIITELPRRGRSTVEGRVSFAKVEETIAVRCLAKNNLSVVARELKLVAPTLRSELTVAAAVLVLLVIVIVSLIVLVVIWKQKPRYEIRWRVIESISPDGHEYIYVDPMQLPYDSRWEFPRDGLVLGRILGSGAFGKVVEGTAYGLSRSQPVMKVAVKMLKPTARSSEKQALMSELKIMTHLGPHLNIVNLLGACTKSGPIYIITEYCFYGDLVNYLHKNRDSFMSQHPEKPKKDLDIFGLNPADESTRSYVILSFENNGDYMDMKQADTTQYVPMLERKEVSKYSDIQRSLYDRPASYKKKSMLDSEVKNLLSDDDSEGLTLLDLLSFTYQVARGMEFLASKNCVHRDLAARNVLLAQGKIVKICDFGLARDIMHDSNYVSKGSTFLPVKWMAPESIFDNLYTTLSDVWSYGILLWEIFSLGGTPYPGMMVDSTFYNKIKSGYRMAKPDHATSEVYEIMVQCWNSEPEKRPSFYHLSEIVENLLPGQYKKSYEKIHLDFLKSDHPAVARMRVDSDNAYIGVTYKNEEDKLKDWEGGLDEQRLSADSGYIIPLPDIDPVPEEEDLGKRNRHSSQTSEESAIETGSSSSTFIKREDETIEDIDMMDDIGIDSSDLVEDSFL
T1 sequence (P09619 33-210): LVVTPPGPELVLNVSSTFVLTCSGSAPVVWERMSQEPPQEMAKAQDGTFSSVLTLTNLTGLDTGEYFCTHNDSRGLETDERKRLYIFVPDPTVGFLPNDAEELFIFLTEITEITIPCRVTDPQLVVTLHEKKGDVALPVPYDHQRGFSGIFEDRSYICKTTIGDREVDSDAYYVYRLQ

Molecule | inhibition of PDGF-BB-stimulated phosphorylation of Akt and p44/42 MAP kinase [1] | inhibition of PDGF-BB-stimulated cell migration (NCI-H460 cells) | inhibition of PDGF-BB-stimulated cell migration (OVCAR8 cells) | binding to 3β2α (3β2α) | binding to 4β1α (4β1α) | binding to h5β (h5β) | binding to β1-2 (β1-2) | cross-reactivity, binding to human PDGFRβ (human PDGFRβ) | binding to mouse PDGFRα (mouse PDGFRα) | overt toxicity, including changes in body weight and animal behavior (human xenograft tumors)
B1 | potently inhibited | inhibited PDGF-BB-stimulated cell migration completely | inhibited PDGF-BB-stimulated cell migration completely | ✓ | ✓ | ✓ | ✓ | – | – | –
B2 | – | – | – | – | – | – | – | No cross-reactivity was observed | did not bind | did not cause any overt toxicity

Reference: patent US7740850B2, “PDGFRβ-specific antibodies” (ImClone, LLC, priority 2007, dated 2010)
